The values below come from patent publication US20250283871A1, “COMPOSITIONS AND METHODS FOR MODULATING THE INTERACTION BETWEEN SS18-SSX FUSION ONCOPROTEIN AND NUCLEOSOMES” (Dana-Farber Cancer Institute, Inc., priority 2020, published 2025).

Numbering of substitutions follows the chain as printed. In names and notes the source's numbering stands.

Holding throughout (type): cell-based, human
In one experiment the test system is BAF complex components. As to the kind of experiment: anti-SMARCA4 (BRG1) IP mass spectrometry (Tables 7A-7C). The conditions noted are these: Aska-SS cells -/+ shSSX. The method, then:
Peptide abundance normalized to SMARCA4 abundance. […] SMARCC1, SS18, GFP, SMARCB1, and TBP levels are shown. […] T indicates 0-40 min timecourse; n=3 experimental replicates at each time point; error bars represent standard deviation.
Nuclear extracts were quantified by Bradford assay and 150-200 μg of protein was incubated with 2 μg of antibody in Buffer EB300 (50 mM Tris pH 7.5, 0.1% NP-40, 1 mM EDTA, 1 mM MgCl2, […] with protease inhibitor (Roche, C756U27), 1 mM DTT and 1 mM phenylmethylsulfonyl fluoride (PMSF)) overnight at 4° C. Each sample was then incubated with Protein G Dynabeads® (Thermo Scientific) for 2-3 hours. Beads were washed three times with Buffer EB300 followed by elution with 20 μL of elution buffer (NuPage™ LDS buffer (2×) (Life Technologies) containing 100 mM DTT and water).

In the next experiment the test system is Barr bodies (inactive X). Put plainly: Immunofluorescence, Barr body localization. The note with it: RING1A/1B-dKO HEK-293T cells. The method, then:
Immunofluorescent images were obtained as previously described (Daou et al. (2011) Pro. Nat. Acad. Sci. U.S.A 108:2747-2752). Following lentiviral infection and/or drug treatment, cells were prepared by fixation in 3% PFA-PBS and then were permeabilized with PBS 0.1% NP40. Following incubation with primary antibodies, the Anti-rabbit Alexa Fluor® 594 and Anti-mouse Alexa Fluor® 488 (Life Technologies) secondary antibodies were used for visualization. Staining with 4′,6-diamidino-2-phenylindole (DAPI) was used to visualize nuclei. Images were acquired using Zeiss Axio Imager Z2 microscope and images were processed using ImageJ program (NIH).

For another experiment, the system named is H2A K119Ub. Put plainly: Immunoblot of H2A K119Ub deposition in RING1A/B dKO 293T cells rescued with RING1B variants. The note with it: RING1A/1B-dKO HEK-293T cells. The method, then:
Detection of proteins by western blot (WB) analysis was achieved using standard protocols with primary antibodies (Table 4). […] The membranes were then blocked in 5% milk and incubated with primary antibody in PBST over night at 4° C. Following incubation with the primary antibody, membranes were washed 3× in PBST, incubated with IRDye® (LI-COR Biosciences) secondary antibodies for 3 hours, washed 3× in PBST with a final PBS wash, and then visualized by the LI-COR Odyssey® Imaging System (LI-COR Biosciences).

B1: BCL7B: BAF complex subunit quantified in the IP MS (protein, UniProt Q9BQE9 1-202, looked up)
B-cell CLL/lymphoma 7 protein …: MSGRSVRAETRSRAKDDIKKVMAAIEKVRKWEKKWVTVGDTSLRIFKWVPVTDSKEKEKSKSNSSAAREPNGFPSDASANSSLLLEFQDENSNQSSVSDVYQLKVDSSTNSSPSPQQSESLSPAHTSDFRTDDSQPPTLGQEILEEPSLPSSEVADEPPTLTKEEPVPLETQVVEEEEDSGAPPLKRFCVDQPTVPQTASES
As for B1, in the experiment with BAF complex components (Rep 1), the “Aska (shControl)/Aska (shSS18-SSX) LFQ Intensity (Norm to SMARCA4 Rep 1)” value is on record as 1.339. Also, the “Aska (shControl)/Aska (shSS18-SSX) LFQ Intensity (Norm to SMARCA4 Rep 2)” value in the experiment with BAF complex components (Rep 2) is 1.126.

B2: WT RING1B: wild-type RING1B re-expressed in RING1A/1B-dKO cells (protein, UniProt Q99496 2-336, looked up)
E3 ubiquitin-protein ligase …: SQAVQTNGTQPLSKTWELSLYELQRTPQEAITDGLEIVVSPRSLHSELMCPICLDMLKNTMTTKECLHRFCADCIITALRSGNKECPTCRKKLVSKRSLRPDPNFDALISKIYPSRDEYEAHQERVLARINKHNNQQALSHSIEEGLKIQAMNRLQRGKKQQIENGSGAEDNGDSSHCSNASTHSNQEAGPSNKRTKTSDDSGLELDNNNAAMAIDPVMDGASEIELVFRPHPTLMEKDDSAQTRYIKTSGNATVDHLSKYLAVRLALEELRSKGESNQMNLDTASEKQYTIYIATASGQFTVLNGSFSLELVSEKYWKVNKPMELYYAPTKEHK
B2: the “SS18-SSX / SSX localization after RING1B rescue” value (“SS18-SSX / SSX localization” below) with Barr bodies (inactive X) is reported as “able to completely rescue SSX localization”.

B3: I53A: widely-used RING1B I53A mutant (protein, UniProt Q99496 2-336, looked up, variant I53A)
E3 ubiquitin-protein ligase …: B2 E3 ubiquitin-protein ligase … with I52A
In the case of B3, the H2A ubiquitination result in the experiment with H2A K119Ub was “only partially attenuated H2A ubiquitination”. Further, in the experiment with Barr bodies (inactive X), the “SS18-SSX / SSX localization” value is given as “little effect on SSX targeting”.

B4: I53A/D56K: RING1B point mutant disrupting the E2 binding interface (protein, UniProt Q99496 2-336, looked up, variant I53A D56K)
E3 ubiquitin-protein ligase …: B2 E3 ubiquitin-protein ligase … with I52A, D55K
With B4, in the experiment with Barr bodies (inactive X), the “SS18-SSX / SSX localization” value is given as “unable to recruit SS18-SSX”.

B5: R91E: ligase-deficient RING1 point mutant, E2 binding interface (protein, UniProt Q99496 2-336, looked up, variant R91E)
E3 ubiquitin-protein ligase …: B2 E3 ubiquitin-protein ligase … with R90E
Turning to B5, the “SS18-SSX / SSX localization” value in the experiment on Barr bodies (inactive X) is recorded as “unable to recruit SS18-SSX”.
